Test results taken from the supplement of paper PMC10126150.
± gives the standard deviation of the averaged measurements.

Test system: ATP
Assay: switch fluorescence ratio, 500 uM ATP over buffer (Cy3 cluster intensity, sum of 5 cycles each) (fold (ratio)); higher = stronger signal-on switching upon ATP binding; sequences stand for … in TCGTCGGCAGCGTCAGATGTGTATAAGAGACAGTTTTTTTTTTTTTTTTTTTTTTTTT…TC
Settings: aptamer strand: ATP DNA aptamer (quencher-CACCTGGGGGAGTATTGCGGAGGAAGG + anchor), 100 nM annealed; ATP concentration: 500 uM
Method in brief: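 Cy3-labelled switching-strand clusters on a modified Illumina MiSeq flow-cell were annealed to 100 nM quencher-labelled ATP aptamer and imaged first in selection buffer, then after 15 min with 500 uM ATP at 22 °C. NaOH stripping and re-annealing separated each of five buffer/ATP cycles, and clusters outside 100-1000 RFU were excluded. The fluorescence ratio sums target-cycle Cy3 intensity over buffer-cycle Cy3 intensity per cluster and averages it per switch-domain sequence.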
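Note: ATP exposure 15 min at 22 °C before imaging.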

Sequence | switch fluorescence ratio
AGGGTGAGGG | 0.984 ± 0.042
AGGGTGGTAG | 0.978 ± 0.035
AGGGTGTGAT | 1.04 ± 0.026
AGGGTGTTAT | 0.993 ± 0.022
AGGGTGTTTG | 1.01 ± 0.019
AGGGTTAAAT | 1 ± 0.012
AGGGTTAAGT | 1.002 ± 0.0061
AGGGTTACGG | 1.02 ± 0.025
AGGGTTATGT | 0.971 ± 0.03
AGGGTTATTA | 0.9786 ± 0.0025
AGGGTTATTT | 0.998 ± 0.03
AGGGTTGGGC | 1.01 ± 0.021
AGGGTTGTAT | 1.001 ± 0.0037
AGGGTTGTTG | 0.999 ± 0.015
AGGGTTTCTC | 0.989 ± 0.0011
AGGGTTTGAG | 1.11 ± 0.2
AGGGTTTGCT | 0.96929 ± 0.00044
AGGGTTTTAG | 0.994 ± 0.019
AGGTAAAAAG | 1.02 ± 0.017
AGGTAAGGCT | 0.976 ± 0.025
AGGTAATACA | 1.08 ± 0.029
AGGTAATGCA | 1.012 ± 0.0037
AGGTACGACG | 0.99 ± 0.013
AGGTACGGAG | 1.01 ± 0.019
AGGTACGTTT | 1.03 ± 0.02

Sequence | switch fluorescence ratio
AGGTACTGTA | 1.01 ± 0.011
AGGTAGAATG | 0.998 ± 0.0045
AGGTAGATGG | 0.995 ± 0.0096
AGGTAGCTGT | 1.04 ± 0.053
AGGTAGGCAT | 1 ± 0.041
AGGTAGGGTG | 1.04 ± 0.055
AGGTATTCAG | 1.01 ± 0.033
AGGTATTGG | 1.008 ± 0.0055
AGGTATTGGG | 1.02 ± 0.043
AGGTATTTGA | 0.984 ± 0.054
AGGTCAGCTT | 1.01 ± 0.04
AGGTCAGTAG | 1 ± 0.024
AGGTCATTGA | 1 ± 0.021
AGGTCCGGTG | 1.031 ± 0.0096
AGGTCGATCC | 0.993 ± 0.05
AGGTCGGATG | 1.004 ± 0.0056
AGGTCGGCA | 0.9919 ± 0.0092
AGGTCGGGGG | 0.988 ± 0.029
AGGTGAAAAG | 1.01 ± 0.02
AGGTGAAATC | 1.26 ± 0.34
AGGTGAAATT | 1.11 ± 0.1
AGGTGATGGG | 1.04 ± 0.023
AGGTGATGTG | 0.998 ± 0.028
AGGTGCATTT | 1.08 ± 0.02
AGGTGCTTAC | 1.04 ± 0.037

Sequence | switch fluorescence ratio
AGGTGGGAGT | 1.02 ± 0.021
AGGTGGTACA | 0.993 ± 0.03
AGGTGGTAGT | 1 ± 0.012
AGGTGTAAAT | 1.003 ± 0.0016
AGGTGTATTG | 1.03 ± 0.017
AGGTGTTATC | 0.9933 ± 0.0015
AGGTGTTCCG | 1.04 ± 0.084
AGGTGTTTAA | 1.03 ± 0.061
AGGTGTTTGC | 1.05 ± 0.028
AGGTTAACTA | 1.02 ± 0.024
AGGTTAAGTA | 1 ± 0.027
AGGTTACAAT | 1.04 ± 0.043
AGGTTACATC | 1.018 ± 0.0016
AGGTTAGACG | 1.01 ± 0.04
AGGTTAGATG | 0.991 ± 0.013
AGGTTATACG | 1.01 ± 0.022
AGGTTCTATT | 0.9864 ± 0.0089
AGGTTGAAAG | 0.974 ± 0.035
AGGTTGGGC | 1.04 ± 0.034
AGGTTGGGGT | 1.01 ± 0.036
AGGTTGGTTA | 0.984 ± 0.029
AGGTTGTATG | 0.97 ± 0.039
AGGTTGTGGG | 1.02 ± 0.022
AGGTTGTTTT | 0.977 ± 0.028
AGGTTTCTCT | 0.966 ± 0.031

Sequence | switch fluorescence ratio
AGGTTTGCTC | 1.01 ± 0.011
AGGTTTGGGA | 0.987 ± 0.032
AGGTTTGGGT | 0.998 ± 0.026
AGGTTTGTA | 1.04 ± 0.016
AGGTTTGTGG | 0.976 ± 0.023
AGGTTTGTTA | 0.987 ± 0.015
AGGTTTTATT | 0.948 ± 0.023
AGTAAAAAAT | 0.9891 ± 0.0066
AGTAAAATT | 0.9865 ± 0.0036
AGTAAAGTGG | 0.971 ± 0.025
AGTAAAGTGT | 0.99703 ± 0.00028
AGTAAATCTC | 1.04 ± 0.017
AGTAACCAAA | 1.04 ± 0.097
AGTAACGCGG | 0.979 ± 0.014
AGTAAGAGAA | 0.995 ± 0.023
AGTAAGATTG | 0.9889 ± 0.0026
AGTAAGATTT | 1.16 ± 0.15
AGTAAGCCAC | 1.05 ± 0.082
AGTAAGGATC | 1 ± 0.031
AGTAAGGCGC | 1.02 ± 0.045
AGTAAGGGCA | 1.01 ± 0.016
AGTAAGTATG | 1.04 ± 0.054
AGTAAGTCGG | 0.975 ± 0.022
AGTAAGTCTG | 0.969 ± 0.02
AGTAATGAGG | 0.985 ± 0.035

Sequence | switch fluorescence ratio
AGTAATTAGG | 1.027 ± 0.0043
AGTAATTGAC | 1.1 ± 0.013
AGTAATTGCG | 0.982 ± 0.034
AGTACGGGGA | 1.04 ± 0.053
AGTACTGCGA | 1.05 ± 0.035
AGTAGAGGAC | 1.01 ± 0.045
AGTAGCATTC | 1.724 ± 0.013
AGTAGCGGTC | 1.02 ± 0.057
AGTAGCTTTT | 0.997 ± 0.016
AGTAGGAGT | 0.998 ± 0.033
AGTAGGGAGT | 0.9784 ± 0.0094
AGTAGGGGGT | 1.01 ± 0.022
AGTAGGGTCC | 1.03 ± 0.029
AGTAGGGTGC | 1.07 ± 0.12
AGTAGGGTTT | 0.9932 ± 0.0097
AGTAGGTGGC | 1 ± 0.052
AGTAGTGTTG | 1.01 ± 0.068
AGTAGTTTTG | 0.98 ± 0.014
AGTATCAGAA | 1 ± 0.042
AGTATCCCTA | 0.998 ± 0.021
AGTATGAGTA | 1.015 ± 0.0088
AGTATGGTGC | 0.991 ± 0.029
AGTATTACGG | 0.9989 ± 0.0088
AGTATTGGGC | 1.008 ± 0.01
AGTATTTATT | 1 ± 0.03

Sequence | switch fluorescence ratio
AGTCAACCGG | 1.03 ± 0.034
AGTCACTTAG | 1.05 ± 0.015
AGTCAGAGTA | 0.9821 ± 0.004
AGTCATTTTA | 0.999 ± 0.028
AGTCCGGACC | 0.967 ± 0.026
AGTCCGGGGT | 1.04 ± 0.025
AGTCCTAGGT | 1.03 ± 0.022
AGTCCTTATT | 0.977 ± 0.021
AGTCGGGATG | 0.963 ± 0.035
AGTCGGGTTC | 0.973 ± 0.032
AGTCGTCACG | 0.9926 ± 0.0099
AGTCTAAGGG | 0.993 ± 0.013
AGTCTCTGGG | 0.974 ± 0.024
AGTCTGAAGA | 0.987 ± 0.036
AGTCTGCCGG | 1.01 ± 0.028
AGTCTGCGCG | 1.002 ± 0.007
AGTCTGTTTC | 0.999 ± 0.024
AGTCTTAGCA | 0.991 ± 0.049
AGTGAATGGA | 0.991 ± 0.024
AGTGAATTTT | 0.988 ± 0.064
AGTGACACCT | 1.15 ± 0.054
AGTGACCCCT | 1.06 ± 0.035
AGTGACGCTC | 1.08 ± 0.024
AGTGACGTAC | 1.77 ± 0.075
AGTGAGCTGG | 0.9733 ± 0.0031

Sequence | switch fluorescence ratio
AGTGATAAGT | 0.969 ± 0.015
AGTGATGTTC | 0.976 ± 0.016
AGTGCAGGTG | 2.438 ± 0.015
AGTGCGGGCG | 0.9895 ± 0.003
AGTGCGGGGC | 1.07 ± 0.013
AGTGCGTTTA | 1 ± 0.014
AGTGCTGTGC | 0.997 ± 0.012
AGTGCTTTTG | 0.978 ± 0.018
AGTGCTTTTT | 1.01 ± 0.012
AGTGGAATGC | 1.12 ± 0.032
AGTGGAATTC | 1.04 ± 0.012
AGTGGACGGG | 0.994 ± 0.023
AGTGGCATGC | 0.985 ± 0.023
AGTGGGAAGG | 0.956 ± 0.021
AGTGGGAATG | 0.9595 ± 0.0078
AGTGGGACGC | 1 ± 0.044
AGTGGGAGGG | 1 ± 0.02
AGTGGGAGTT | 1.002 ± 0.0081
AGTGGGGCCA | 1.03 ± 0.044
AGTGGGGGGA | 1.02 ± 0.028
AGTGGGGTG | 1.03 ± 0.026
AGTGGGGTGG | 0.982 ± 0.043
AGTGGGTAAG | 0.9869 ± 0.0085
AGTGGGTTGG | 0.99 ± 0.014
AGTGGTATGA | 1.01 ± 0.048

Sequence | switch fluorescence ratio
AGTGGTGAGG | 0.983 ± 0.016
AGTGGTTTTT | 0.9946 ± 0.0055
AGTGTACGGG | 1.083 ± 0.0077
AGTGTACTCG | 1.04 ± 0.056
AGTGTAGGGG | 1.02 ± 0.028
AGTGTATACT | 0.9886 ± 0.0021
AGTGTGAGCT | 1 ± 0.037
AGTGTGGGCT | 1.04 ± 0.021
AGTGTGGGGC | 1.03 ± 0.0097
AGTGTGGTTA | 1.005 ± 0.01
AGTGTGTGGC | 1.01 ± 0.016
AGTGTTAGGA | 1.02 ± 0.011
AGTGTTGTAT | 1.05 ± 0.044
AGTGTTTGTT | 0.9995 ± 0.0052
AGTTAAAAAT | 0.996 ± 0.022
AGTTAAAATA | 1 ± 0.021
AGTTAAATTT | 0.994 ± 0.035
AGTTAATAAA | 1 ± 0.0019
AGTTACCCGA | 1.04 ± 0.011
AGTTACGGAC | 1.36 ± 0.017
AGTTACGGGA | 1.1 ± 0.03
AGTTAGACAG | 0.9737 ± 0.0062
AGTTAGCAAT | 2.45 ± 0.11
AGTTAGGGCG | 1.04 ± 0.058
AGTTAGGTGT | 1.04 ± 0.044
